# Changes are numbered by the printed parent chain. Names and notes keep the numbering of the source.
# T1: Gly-Asp-Asp-Asp-Asp-Lys-β-naphthylamide
# T1 chain: GDDDDK
# T2: human fibrinogen, P02671
# T2 chain 1: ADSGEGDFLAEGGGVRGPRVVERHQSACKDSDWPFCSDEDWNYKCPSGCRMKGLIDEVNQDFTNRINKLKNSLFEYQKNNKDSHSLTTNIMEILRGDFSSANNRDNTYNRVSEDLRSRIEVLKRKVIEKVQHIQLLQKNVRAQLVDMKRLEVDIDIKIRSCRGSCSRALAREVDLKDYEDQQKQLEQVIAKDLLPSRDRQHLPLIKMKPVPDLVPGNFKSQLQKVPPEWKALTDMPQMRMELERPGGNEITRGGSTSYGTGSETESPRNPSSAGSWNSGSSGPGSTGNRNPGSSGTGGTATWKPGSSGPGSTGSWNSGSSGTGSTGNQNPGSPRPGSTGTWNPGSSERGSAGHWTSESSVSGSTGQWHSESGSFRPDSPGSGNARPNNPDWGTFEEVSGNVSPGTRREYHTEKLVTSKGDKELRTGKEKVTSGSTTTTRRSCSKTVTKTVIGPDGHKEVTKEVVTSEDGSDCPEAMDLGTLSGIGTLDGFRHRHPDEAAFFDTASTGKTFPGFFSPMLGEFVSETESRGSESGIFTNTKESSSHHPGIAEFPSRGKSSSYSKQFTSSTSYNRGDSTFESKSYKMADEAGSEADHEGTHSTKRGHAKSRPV
# T2 chain 2: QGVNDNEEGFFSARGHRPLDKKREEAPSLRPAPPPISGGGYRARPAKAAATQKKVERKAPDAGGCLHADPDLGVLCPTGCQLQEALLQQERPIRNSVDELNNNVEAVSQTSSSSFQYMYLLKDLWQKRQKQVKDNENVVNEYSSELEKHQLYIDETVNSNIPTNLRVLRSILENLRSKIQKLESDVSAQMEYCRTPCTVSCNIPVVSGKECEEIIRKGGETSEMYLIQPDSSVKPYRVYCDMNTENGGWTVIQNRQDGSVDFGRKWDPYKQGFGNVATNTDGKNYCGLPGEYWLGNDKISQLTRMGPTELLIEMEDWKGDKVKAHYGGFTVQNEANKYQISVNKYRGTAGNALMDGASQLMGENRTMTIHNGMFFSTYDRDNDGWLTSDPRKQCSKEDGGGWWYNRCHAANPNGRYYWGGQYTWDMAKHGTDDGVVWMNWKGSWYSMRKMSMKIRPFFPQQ
# T2 chain 3: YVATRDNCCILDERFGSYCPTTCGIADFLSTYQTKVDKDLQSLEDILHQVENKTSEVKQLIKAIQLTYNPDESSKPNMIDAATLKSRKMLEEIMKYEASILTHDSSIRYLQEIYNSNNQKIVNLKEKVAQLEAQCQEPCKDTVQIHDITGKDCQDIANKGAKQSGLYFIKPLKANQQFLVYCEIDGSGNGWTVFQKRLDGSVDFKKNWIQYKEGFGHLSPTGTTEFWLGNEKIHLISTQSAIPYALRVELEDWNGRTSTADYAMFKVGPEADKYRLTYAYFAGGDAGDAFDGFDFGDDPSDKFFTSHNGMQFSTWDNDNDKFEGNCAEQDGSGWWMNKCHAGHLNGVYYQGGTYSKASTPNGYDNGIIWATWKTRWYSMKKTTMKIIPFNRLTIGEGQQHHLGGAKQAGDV
# T3: Pro-Phe-Arg-MCA
# T3 chain: PFR
# T4: Z-Phe-Arg-MCA
# T4 chain: FR
# T5: human high-molecular-weight (HMW) kininogen, P01042
# T5 chain: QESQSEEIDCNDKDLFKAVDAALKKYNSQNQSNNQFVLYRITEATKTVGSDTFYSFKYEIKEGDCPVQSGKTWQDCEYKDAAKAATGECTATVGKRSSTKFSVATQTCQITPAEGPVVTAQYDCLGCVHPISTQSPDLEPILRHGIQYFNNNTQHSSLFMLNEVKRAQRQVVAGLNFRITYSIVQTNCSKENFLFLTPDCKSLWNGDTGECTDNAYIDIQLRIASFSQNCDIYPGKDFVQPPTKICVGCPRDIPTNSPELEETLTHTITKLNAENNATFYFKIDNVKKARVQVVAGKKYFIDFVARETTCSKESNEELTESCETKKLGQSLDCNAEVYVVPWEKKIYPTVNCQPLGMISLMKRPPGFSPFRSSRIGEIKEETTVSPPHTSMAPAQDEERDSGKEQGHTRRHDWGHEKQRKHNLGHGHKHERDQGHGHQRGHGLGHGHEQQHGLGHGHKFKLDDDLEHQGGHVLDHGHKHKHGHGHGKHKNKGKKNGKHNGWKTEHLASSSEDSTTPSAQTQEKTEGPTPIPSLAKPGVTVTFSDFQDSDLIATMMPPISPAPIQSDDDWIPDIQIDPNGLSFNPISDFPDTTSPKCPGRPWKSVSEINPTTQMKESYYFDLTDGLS
# T6: Boc-Glu(OBzl)-Ala-Arg-MCA
# T6 chain: EAR
# B1: Bovine EP serine protease (New England Biolabs) (protein)
# chain: IVGGSDSREGAWPWVVALYFDDQQVCGASLVSRDWLVSAAHCVYGRNMEPSKWKAVLGLHMASNLTSPQIETRLIDQIVINPHYNKRRKNNDIAMMHLEMKVNYTDYIQPICLPEENQVFPPGRICSIAGWGALIYQGSTADVLQEADVPLLSNEKCQQQMPEYNITENMVCAGYEAGGVDSCQGDSGGPLMCQENNRWLLAGVTSFGYQCALPNRPGVYARVPRFTEWIQSFLH
# B2: Medaka EP-1 serine protease domain mutant K63R (protein)
# chain: VVGGVNAEKGAWPWMVSLHWRGRHGCGASLIGRDWLLTAAHCVYGRNTHLQYWSAVLGLHAQSSMNSQEVQIRQVDRIIINKNYNRRTKEADIAMMHLQQPVNFTEWVLPVCLASEDQHFPAGRRCFIAGWGRDAEGGSLPDILQEAEVPLVDQDECQRLLPEYTFTSSMLCAGYPEGGVDSCQGDSGGPLMCLEDARWTLIGVTSFGVGCGRPERPGAYARVSAFTSWIAETRRSSFSDLD
# B3: Medaka EP-1 serine protease domain mutant T105E (protein)
# chain: B2 chain with R46K, T88E
# B4: Medaka EP-1 serine protease domain mutant P193E (protein)
# chain: B2 chain with R46K, P176E
# Biological target: D4K-cleavage site-containing control protein (Novagen)
row,Protein,cleavage of the fusion protein (SDS-PAGE)
1,B1,the mammalian enzymes not only produced the two expected polypeptides but also further degraded the products

# Biological target: T1, Gly-Asp-Asp-Asp-Asp-Lys-β-naphthylamide
Protein,Km,kcat,kcat/Km (mM^-1 · min^-1),enzyme activity against wild-type
B1,500 µM,25 s⁻¹,3000,
B2,200 µM,3.5 s⁻¹,1100,consistently resulted in reduced enzyme activity for synthetic peptide substrates
B3,400 µM,4.33 s⁻¹,650,consistently resulted in reduced enzyme activity for synthetic peptide substrates
B4,400 µM,4.83 s⁻¹,730,consistently resulted in reduced enzyme activity for synthetic peptide substrates

# Biological target: T2, human fibrinogen, P02671
row,Protein,nonspecific proteolytic activity (SDS-PAGE)
1,B1,both of which were degraded noticeably by mammalian EP proteases
2,B2,The mutant proteases had lower nonspecific proteolytic activity for ... human fibrinogen
3,B3,The mutant proteases had lower nonspecific proteolytic activity for ... human fibrinogen
4,B4,The mutant proteases had lower nonspecific proteolytic activity for ... human fibrinogen

# Biological target: T3, Pro-Phe-Arg-MCA
Protein,Km,kcat,kcat/Km (mM^-1 · min^-1),enzyme activity against wild-type
B1,2900 µM,21.7 s⁻¹,450,
B2,1100 µM,0.183 s⁻¹,10,consistently resulted in reduced enzyme activity for synthetic peptide substrates
B3,1300 µM,0.267 s⁻¹,12,consistently resulted in reduced enzyme activity for synthetic peptide substrates
B4,1000 µM,0.45 s⁻¹,27,consistently resulted in reduced enzyme activity for synthetic peptide substrates

# Biological target: recombinant fusion protein of Medaka gelatinase A
row,Protein,cleavage of the fusion protein (SDS-PAGE)
1,B1,the fusion protein was extensively digested by mammalian EP serine proteases

# Biological target: Human plasma fibronectin, P02751
# Sequence (P02751 other isoform, or with tags, fused parts or gaps): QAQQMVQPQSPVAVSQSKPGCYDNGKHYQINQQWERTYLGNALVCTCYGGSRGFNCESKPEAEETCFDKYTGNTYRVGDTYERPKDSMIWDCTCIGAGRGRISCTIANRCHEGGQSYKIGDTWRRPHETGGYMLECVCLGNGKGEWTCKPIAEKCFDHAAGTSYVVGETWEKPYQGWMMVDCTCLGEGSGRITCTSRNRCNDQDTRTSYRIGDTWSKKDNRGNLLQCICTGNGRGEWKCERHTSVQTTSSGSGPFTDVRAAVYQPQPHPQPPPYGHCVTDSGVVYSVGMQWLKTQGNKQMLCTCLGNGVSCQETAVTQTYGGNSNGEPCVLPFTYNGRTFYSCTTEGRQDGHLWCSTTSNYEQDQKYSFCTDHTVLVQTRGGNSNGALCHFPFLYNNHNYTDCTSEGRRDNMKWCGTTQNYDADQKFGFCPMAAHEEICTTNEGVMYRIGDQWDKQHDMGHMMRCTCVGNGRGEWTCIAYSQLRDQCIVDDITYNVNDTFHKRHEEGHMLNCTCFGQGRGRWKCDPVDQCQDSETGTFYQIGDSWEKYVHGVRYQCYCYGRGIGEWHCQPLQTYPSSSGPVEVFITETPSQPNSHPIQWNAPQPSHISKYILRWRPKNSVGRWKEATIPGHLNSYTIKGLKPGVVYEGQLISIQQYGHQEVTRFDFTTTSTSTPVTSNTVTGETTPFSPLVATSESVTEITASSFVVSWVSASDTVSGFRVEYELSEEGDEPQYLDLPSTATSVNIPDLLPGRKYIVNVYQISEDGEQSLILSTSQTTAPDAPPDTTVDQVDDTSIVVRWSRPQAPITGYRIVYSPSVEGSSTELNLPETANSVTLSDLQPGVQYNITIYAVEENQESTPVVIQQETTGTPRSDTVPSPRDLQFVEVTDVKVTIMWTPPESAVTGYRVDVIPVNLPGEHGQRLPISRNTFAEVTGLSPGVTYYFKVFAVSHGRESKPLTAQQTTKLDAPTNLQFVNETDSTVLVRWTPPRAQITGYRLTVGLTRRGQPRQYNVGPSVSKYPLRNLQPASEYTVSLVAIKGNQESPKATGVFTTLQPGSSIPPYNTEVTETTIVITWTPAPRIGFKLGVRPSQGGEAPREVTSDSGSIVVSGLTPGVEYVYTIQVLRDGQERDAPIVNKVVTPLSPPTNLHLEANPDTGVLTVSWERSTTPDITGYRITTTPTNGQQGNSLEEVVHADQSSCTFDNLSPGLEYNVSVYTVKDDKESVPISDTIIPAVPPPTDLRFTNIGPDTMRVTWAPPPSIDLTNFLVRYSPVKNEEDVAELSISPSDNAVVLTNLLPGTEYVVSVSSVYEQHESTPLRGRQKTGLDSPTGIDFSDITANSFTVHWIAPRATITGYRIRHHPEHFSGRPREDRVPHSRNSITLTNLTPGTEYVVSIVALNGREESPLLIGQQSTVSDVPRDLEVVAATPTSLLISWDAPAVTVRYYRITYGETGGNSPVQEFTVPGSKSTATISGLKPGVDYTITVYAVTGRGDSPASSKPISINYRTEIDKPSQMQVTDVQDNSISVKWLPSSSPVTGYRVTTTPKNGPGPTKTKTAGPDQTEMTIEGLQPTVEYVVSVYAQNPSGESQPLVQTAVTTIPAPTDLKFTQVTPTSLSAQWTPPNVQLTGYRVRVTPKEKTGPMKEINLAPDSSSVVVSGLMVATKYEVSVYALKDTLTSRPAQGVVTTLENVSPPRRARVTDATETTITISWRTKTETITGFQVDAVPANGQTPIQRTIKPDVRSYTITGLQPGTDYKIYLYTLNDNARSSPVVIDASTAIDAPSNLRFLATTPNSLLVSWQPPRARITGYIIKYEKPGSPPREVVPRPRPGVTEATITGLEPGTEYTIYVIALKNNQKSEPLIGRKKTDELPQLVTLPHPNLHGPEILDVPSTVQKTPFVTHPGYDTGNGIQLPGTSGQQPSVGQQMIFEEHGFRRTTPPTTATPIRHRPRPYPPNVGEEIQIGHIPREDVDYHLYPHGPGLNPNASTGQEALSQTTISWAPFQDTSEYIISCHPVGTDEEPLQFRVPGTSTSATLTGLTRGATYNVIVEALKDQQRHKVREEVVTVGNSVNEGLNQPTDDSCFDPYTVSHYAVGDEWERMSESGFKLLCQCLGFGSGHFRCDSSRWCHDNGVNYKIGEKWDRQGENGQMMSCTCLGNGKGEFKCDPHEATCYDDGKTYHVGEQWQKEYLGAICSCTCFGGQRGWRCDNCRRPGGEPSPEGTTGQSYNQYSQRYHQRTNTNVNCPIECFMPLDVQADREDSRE
Protein,proteolytic activity (SDS-PAGE),hydrolysis
B1,these substrates were detectably hydrolyzed by the mammalian proteases,
B2,,Neither human fibronectin nor laminin was hydrolyzed by the mutants (data not shown)
B3,,Neither human fibronectin nor laminin was hydrolyzed by the mutants (data not shown)
B4,,Neither human fibronectin nor laminin was hydrolyzed by the mutants (data not shown)

# Biological target: human single-chain tPA fusion protein with N-terminal His-tag/EP-cleavage site, P00750
# Sequence (P00750 whole entry, looked up, the tested form may be a part): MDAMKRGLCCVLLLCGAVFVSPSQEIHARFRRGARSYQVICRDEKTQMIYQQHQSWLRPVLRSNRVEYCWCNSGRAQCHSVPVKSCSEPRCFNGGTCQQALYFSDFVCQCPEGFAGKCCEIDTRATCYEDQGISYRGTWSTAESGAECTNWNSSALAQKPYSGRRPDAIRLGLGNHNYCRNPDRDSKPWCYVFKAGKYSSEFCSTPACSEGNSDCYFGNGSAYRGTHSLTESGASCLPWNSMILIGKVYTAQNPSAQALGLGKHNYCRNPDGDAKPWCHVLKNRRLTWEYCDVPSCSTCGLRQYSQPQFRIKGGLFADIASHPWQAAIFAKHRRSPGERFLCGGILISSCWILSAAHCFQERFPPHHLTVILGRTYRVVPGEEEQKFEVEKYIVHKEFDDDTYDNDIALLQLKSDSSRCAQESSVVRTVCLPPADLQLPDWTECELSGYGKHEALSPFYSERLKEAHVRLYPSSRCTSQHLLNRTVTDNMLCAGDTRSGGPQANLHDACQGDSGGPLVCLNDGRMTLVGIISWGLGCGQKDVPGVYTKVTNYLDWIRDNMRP
row,Protein,cleavage of the fusion protein (SDS-PAGE/Western blot)
1,B1,"but not with mammalian ones, showed two polypeptides (53- and 55-kDa)"

# Biological target: T4, Z-Phe-Arg-MCA
Protein,Km,kcat,kcat/Km (mM^-1 · min^-1),enzyme activity against wild-type
B1,400 µM,10 s⁻¹,1500,
B2,100 µM,0.0233 s⁻¹,14,consistently resulted in reduced enzyme activity for synthetic peptide substrates
B3,100 µM,0.0333 s⁻¹,20,consistently resulted in reduced enzyme activity for synthetic peptide substrates
B4,200 µM,0.0283 s⁻¹,9,consistently resulted in reduced enzyme activity for synthetic peptide substrates

# Biological target: mouse laminin
Protein,proteolytic activity (SDS-PAGE),hydrolysis
B1,these substrates were detectably hydrolyzed by the mammalian proteases,
B2,,Neither human fibronectin nor laminin was hydrolyzed by the mutants (data not shown)
B3,,Neither human fibronectin nor laminin was hydrolyzed by the mutants (data not shown)
B4,,Neither human fibronectin nor laminin was hydrolyzed by the mutants (data not shown)

# Biological target: recombinant fusion protein of Medaka trypsinogen
Protein,activation of trypsinogen,conversion of trypsinogen to active enzyme
B2,K63R converted to trypsin as fast as the wild type enzyme,A total of 12 mutants could convert the recombinant Medaka trypsinogen to its active enzyme (data not shown)
B3,the other mutants activated trypsinogen at a reduced rate,A total of 12 mutants could convert the recombinant Medaka trypsinogen to its active enzyme (data not shown)
B4,the other mutants activated trypsinogen at a reduced rate,A total of 12 mutants could convert the recombinant Medaka trypsinogen to its active enzyme (data not shown)

# Biological target: gelatin
row,Protein,proteolytic activity (gelatin zymography)
1,B1,these substrates were detectably hydrolyzed by the mammalian proteases

# Biological target: T5, human high-molecular-weight (HMW) …
row,Protein,nonspecific proteolytic activity (SDS-PAGE)
1,B1,both of which were degraded noticeably by mammalian EP proteases
2,B2,The mutant proteases had lower nonspecific proteolytic activity for human HMW kininogen
3,B3,The mutant proteases had lower nonspecific proteolytic activity for human HMW kininogen
4,B4,The mutant proteases had lower nonspecific proteolytic activity for human HMW kininogen

# Biological target: T6, Boc-Glu(OBzl)-Ala-Arg-MCA
Protein,Km,kcat,kcat/Km (mM^-1 · min^-1),enzyme activity against wild-type
B1,400 µM,9.5 s⁻¹,1400,
B2,1200 µM,0.2 s⁻¹,10,consistently resulted in reduced enzyme activity for synthetic peptide substrates
B3,1300 µM,0.183 s⁻¹,9,consistently resulted in reduced enzyme activity for synthetic peptide substrates
B4,200 µM,0.0383 s⁻¹,12,consistently resulted in reduced enzyme activity for synthetic peptide substrates
